Experimental data as given in patent US10202584B2, “Red-shifted luciferase-luciferin pairs for enhanced bioluminescence” (The Regents of the University of California, priority 2016, dated 2019).

Tested on: HEK 293T cells
Experiment: Bioluminescence relative to FLuc with P2A bicistronic vectors in HEK 293T cells
Type: cell-based, Human
Details: 10,000 HEK 293T cells, 30 μM substrates, first 2 min integrated
Text: FIG. 12 is a panel examining the impact of luciferase protein levels on bioluminescence intensities. (12a) Western blot analysis of HEK 293T cells expressing luciferases with C-terminal c-Myc tags. The relative proteins levels quantified from individual bands are shown in parentheses. These enzymes were expressed at different levels but the differences were within 3-fold. […] Under this condition, two luciferases in the same vectors are expected to be expressed near-stoichiometrically.

B1: NanoLuc: luciferase engineered from a 19 kDa domain of Oplophorus luciferase (SEQ ID NO: 1) (protein)
chain: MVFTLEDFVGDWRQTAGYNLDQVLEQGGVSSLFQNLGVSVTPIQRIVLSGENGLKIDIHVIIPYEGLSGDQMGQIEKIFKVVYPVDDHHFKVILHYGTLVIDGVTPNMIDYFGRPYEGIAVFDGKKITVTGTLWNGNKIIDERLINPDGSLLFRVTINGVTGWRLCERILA
modifications: Engineered mutant of Oplophorus gracilirostris polypeptide
bioluminescence relative to FLuc, P2A bicistronic vectors: Large bioluminescence enhancements
